Target: T1, 6xHis-hERG1a N1–354-FLAG (human, UniProt Q12809 1-354)
T1 construct: Plasmid made commercially (BioInnovatise); also called hERG1a N-terminal region; source: bacteria, M15 cells, purified (nickel column); not shown: His6, N-terminal, kept; FLAG, C-terminal, kept
Assay: pull-down; GST or GST fusion protein bound to glutathione beads, incubated with 6xHis fusion protein in buffer S (50 mM Tris pH 8, 150 mM NaCl, 25 mM imidazole, 0.25% Tween-20) with 0.5% CHAPS, overnight at 4 °C; washed; Western blot with anti-FLAG
Details: both partners purified

T1 sequence (Q12809 1-354): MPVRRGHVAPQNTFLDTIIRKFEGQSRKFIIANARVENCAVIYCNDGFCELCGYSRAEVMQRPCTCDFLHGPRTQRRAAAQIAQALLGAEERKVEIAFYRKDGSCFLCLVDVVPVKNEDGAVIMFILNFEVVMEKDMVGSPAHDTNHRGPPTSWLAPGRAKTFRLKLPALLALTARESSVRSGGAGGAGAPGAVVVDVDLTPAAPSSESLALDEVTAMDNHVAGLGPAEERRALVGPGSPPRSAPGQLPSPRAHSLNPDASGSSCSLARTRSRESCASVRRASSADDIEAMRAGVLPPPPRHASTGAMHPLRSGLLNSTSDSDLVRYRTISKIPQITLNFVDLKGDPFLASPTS

B1: GST-hERG1b N1–56 (domain or fragment, human, UniProt Q12809-2 1-56, looked up)
chain: MAAPAGKASRTGALRPRAQKGRVRRAVRISSLVAQEVLSLGADVLPEYKLQAPRIH
notes: hERG1b (KCNH2 isoform 1b), human, N-terminal region residues 1-56; numbers count on: hERG1b; Plasmid made commercially (BioInnovatise); also called hERG1b N-terminal region; GST–hERG1b N-terminal region; not shown: GST, N-terminal, kept
- binding result: binds

— article PMC9428852, “The N-linker region of hERG1a upregulates hERG1b potassium channels” (The Journal of Biological Chemistry, 2022)
